B1: EED (core subunit, within the PRC2 complexes) (natural protein)
chain: not shown
notes: EED; Stood in the assay as a subunit of m1 or m2; source: Sf9 insect cells (baculovirus), purified as part of the PRC2 complex
B2: JARID2 1–450 with K116me3 (within PRC2AJ1–450) (domain or fragment, UniProt Q92833 1-450, looked up)
chain: MSKERPKRNIIQKKYDDSDGIPWSEERVVRKVLYLSLKEFKNSQKRQHAEGIAGSLKTVNGLLGNDQSKGLGPASEQSENEKDDASQVSSTSNDVSSSDFEEGPSRKRPRLQAQRKFAQSQPNSPSTTPVKIVEPLLPPPATQISDLSKRKPKTEDFLTFLCLRGSPALPNSMVYFGSSQDEEEVEEEDDETEDVKTATNNASSSCQSTPRKGKTHKHVHNGHVFNGSSRSTREKEPVQKHKSKEATPAKEKHSDHRADSRREQASANHPAAAPSTGSSAKGLAATHHHPPLHRSAQDLRKQVSKVNGVTRMSSLGAGVTSAKKMREVRPSPSKTVKYTATVTKGAVTYTKAKRELVKDTKPNHHKPSSAVNHTISGKTESSNAKTRKQVLSLGGASKSTGPAVNGLKVSGRLNPKSCTKEVGGRQLREGLQLREGLRNSKRRLEEAHQA
modifications: trimethyl-lysine at K116 (JARID2 K116me3)
notes: JARID2 residues 1–450; Stood in the assay as a subunit of m1; also called JARID2 K116me3; methylated JARID2; source: Sf9 insect cells (baculovirus), purified as part of the PRC2 complex

Assays:
[1] = biological target: B2; experiment: cryo-EM structure; 100 nM nucleosome (biotinylated DNA, held on streptavidin affinity grids) with 500 nM PRC2 in 50 mM HEPES pH 7.5, 50 mM KCl, 0.5 mM TCEP, 100 µM S-adenosyl homocysteine; 3–5 min at room temperature; details: both partners purified
[2] = biological target: T1, EZH2 (catalytic subunit, within the PRC2 complexes) (UniProt Q15910 1-746); experiment: as above; details: both partners purified
T1 construct: EZH2; Stood in the assay as a subunit of m1 or m2; source: Sf9 insect cells (baculovirus), purified as part of the PRC2 complex
T1 sequence (Q15910 whole entry, one chain of several): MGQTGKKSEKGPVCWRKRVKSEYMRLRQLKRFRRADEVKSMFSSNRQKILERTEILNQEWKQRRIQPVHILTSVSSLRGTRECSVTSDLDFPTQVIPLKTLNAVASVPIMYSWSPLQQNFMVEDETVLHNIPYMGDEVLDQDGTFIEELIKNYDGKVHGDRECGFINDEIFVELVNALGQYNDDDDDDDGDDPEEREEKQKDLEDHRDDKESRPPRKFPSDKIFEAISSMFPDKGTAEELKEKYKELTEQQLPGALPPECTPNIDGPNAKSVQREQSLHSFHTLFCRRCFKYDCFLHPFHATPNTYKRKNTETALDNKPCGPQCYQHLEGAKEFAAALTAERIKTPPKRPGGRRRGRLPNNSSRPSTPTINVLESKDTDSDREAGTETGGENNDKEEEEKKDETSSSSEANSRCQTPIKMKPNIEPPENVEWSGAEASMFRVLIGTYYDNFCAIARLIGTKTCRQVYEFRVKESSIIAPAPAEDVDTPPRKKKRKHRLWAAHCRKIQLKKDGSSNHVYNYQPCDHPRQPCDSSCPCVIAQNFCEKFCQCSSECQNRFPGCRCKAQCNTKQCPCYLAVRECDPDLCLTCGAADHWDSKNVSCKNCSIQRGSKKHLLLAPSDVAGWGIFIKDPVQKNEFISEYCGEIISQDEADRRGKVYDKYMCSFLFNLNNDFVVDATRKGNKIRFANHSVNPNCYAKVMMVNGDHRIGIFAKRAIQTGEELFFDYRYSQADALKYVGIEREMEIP

Row | Binder | binding result [1] | binding result [2]
1 | B1 | binds | 
2 | B2 |  | binds
